Test results published in US20110033389A1 (published 2011).

B1: AC8FabTAT (Fab, V domains shown)
VH: QVQLVQSGAEVKKPGSSVKVSCKASGGSFSSYAINWVRQAPGQGLEWMGGLMPIFGTTNYAQKFQDRLTITADVSTSTAYMQLSGLTYEDTAMYYCARVAYMLEPTVTAGGLDVWGQGTTVTVAS
VL: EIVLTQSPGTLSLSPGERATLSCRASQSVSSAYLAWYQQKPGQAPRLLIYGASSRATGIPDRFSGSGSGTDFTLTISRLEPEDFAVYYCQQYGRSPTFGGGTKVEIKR
B2: AC8 Fab (Fab, V domains shown)
VH: B1 VH
VL: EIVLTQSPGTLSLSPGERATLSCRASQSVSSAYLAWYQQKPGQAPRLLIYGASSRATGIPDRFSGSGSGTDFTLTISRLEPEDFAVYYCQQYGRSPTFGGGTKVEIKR

Columns and labels:
Assay in all cases: cell-based or functional assay
[1] = target: T1, glycoprotein D of Herpes simplex virus, on HSV-1 virus (Herpes simplex virus (HSV-1 virus in …, UniProt A1Z0Q5 26-394))
[2] = target: T1, glycoprotein D of Herpes simplex virus, …; remark: listed apart in the source
[3] = target: T1, glycoprotein D of Herpes simplex virus, …; remark: listed apart in the source

| Binder | Plaque Reduction Rate Percentage (Average plaque number per plate) at 0.2 µg/ml; virus prevention assay (cells pre-treated with antibody, washed, then HSV-1) [1] [%] | Plaque Reduction Rate Percentage (Average plaque number per plate) at 0.6 µg/ml; virus prevention assay (cells pre-treated with antibody, washed, then HSV-1) [1] [%] | Plaque Reduction Rate Percentage (Average plaque number per plate) at 1.9 µg/ml; virus prevention assay (cells pre-treated with antibody, washed, then HSV-1) [1] [%] | Plaque Reduction Rate Percentage (Average plaque number per plate) at 5.6 µg/ml; virus prevention assay (cells pre-treated with antibody, washed, then HSV-1) [1] [%] | Plaque Reduction Rate Percentage (Average plaque number per plate) at 16.7 µg/ml; virus prevention assay (cells pre-treated with antibody, washed, then HSV-1) [1] [%] | Plaque Reduction Rate Percentage (Average plaque number per plate) at 50 µg/ml; virus prevention assay (cells pre-treated with antibody, washed, then HSV-1) [1] [%] | Plaque Reduction Rate Percentage (Average plaque number per plate) at 0.012 µg/ml; HSV-1 neutralization in solution [2] [%] | Plaque Reduction Rate Percentage (Average plaque number per plate) at 0.037 µg/ml; HSV-1 neutralization in solution [2] [%] | Plaque Reduction Rate Percentage (Average plaque number per plate) at 0.11 µg/ml; HSV-1 neutralization in solution [2] [%] | Plaque Reduction Rate Percentage (Average plaque number per plate) at 0.33 µg/ml; HSV-1 neutralization in solution [2] [%] | Plaque Reduction Rate Percentage (Average plaque number per plate) at 1 µg/ml; HSV-1 neutralization in solution [2] [%] | Plaque Reduction Rate Percentage (Average plaque number per plate) at 3 µg/ml; HSV-1 neutralization in solution [2] [%] | ED50 against HSV-1 infection; virus prevention assay (cells pre-treated with antibody, washed, then HSV-1) [3] [µg/mL] | ED50; plaque reduction assay, HSV-1 neutralization in solution [3] [µg/mL] |
| --- | --- | --- | --- | --- | --- | --- | --- | --- | --- | --- | --- | --- | --- | --- |
| B1 | 0 | 0 | 0 | 13 | 37 | 68 | 0 | 14 | 33 | 77 | 100 | 100 | 27 |  |
| B2 |  |  |  |  |  |  |  |  |  |  |  |  |  | ~0.2 |
